Assay results: patent publication US20240150457A1

Key:
[1] = biological target: Cynomolgus monkey PAR-2 on cells (cynomolgus monkey); assay: cell-based or functional assay
[2] = biological target: Recombinant cynomolgus monkey PAR-2 (cynomolgus monkey); assay: SPR (Biacore), antibody captured on Protein A chip, recombinant PAR-2 injected
[3] = biological target: Cynomolgus monkey PAR-2 on cells (cynomolgus monkey); assay: cell-based or functional assay; remark: listed apart in the source

SLIGKV showed an SLIGKV EC80 mean, calcium flux [1] of 39000 nM and an SLIGKV EC80 mean, β-arrestin [1] of 107000 nM.

B1: P24E1102 (antibody, human IgG4 S228P, kappa, V domains shown)
VH: QVQLVQSGAEVKKPGSSVKVSCKASGFSLSSYAISWVRQAPGQGLEWMGVIWGNQNVYYAQKFQGRVTITADESTSTAYMELSSLRSEDTAVYYCARWKGYKDYPFDYWGQGTLVTVSS
VL: EIVLTQSPATLSLSPGERATLSCRASQNVYKWLDWYQQKPGQAPRLLIYNANTRATGIPARFSGSGSGRDFTLTISSLEPEDFAVYYCQQHHSGWTFGGGTKVEIKR
With B1 the Kd [2] was 4.45 nM, the IC50 mean, calcium flux at SLIGKV EC80 (Nomad line) [3] was 3.98 nM and the IC50 mean, β-arrestin at SLIGKV EC80 (Nomad line) [3] was 15.2 nM.
